Ends that are not written are not given here. * marks the point of attachment. Biotin = O=C1N[C@H]2[C@H](CS[C@H]2CCCCC(=O)*)N1
Key:
[1] = target: T1, hGDF8 peptide 2 (1-18), N-terminal biotinylated (human, cysteine pairing not given here); assay: Luminex peptide beads
T1 construct: also called peptide 2 N-term
T1 peptide: Biotin-DFGLDCDEHSTESRCCRY
Text: (§1) Fourteen peptides (Table 10) were generated from mature hGDF8 (SEQ ID NO:340). Unmodified peptides, N-terminal biotinylated peptides (N-term), or C-terminal biotinylated peptides (C-term) were used to test and localize antibody binding. Full-length hGDF8, hGDF11 and unmodified peptides were each individually amine-coupled to xMAP® Multi-Analyte COOH Microspheres (or beads). Each of the biotinylated peptides was bound to xMAP® Multi-Analyte LumAvidin Microspheres. Peptide-bound beads suspension were then mixed with an equal volume of blocking buffer (PBS, 1%13SA, 0.05% Tween20, 0.05% Sodium azide) and then distributed into a 96 well filter plate (Millipore, MULTISCREEN® BV). Control and test anti-hGDF8 antibodies, at 2.5 μg/ml were then added to the peptide-bound beads suspension and were allowed to bind to the beads at RT, overnight. The antibody-incubated beads were then washed twice with PBST (PBS+0.05% Tween20) and incubated with either Phycoerythrin (PE) conjugated anti-hFC or PE-conjugated anti-mFC antibodies at RT for 45 min. The beads were washed again and the antibody binding signal to various peptides were detected with either LUMINEX® 100™ or 200™ instruments.

[2] = target: T2, hGDF8 peptide 13 (75-105), C-terminal biotinylated (human, C-terminal biotin); assay: Luminex peptide beads
T2 construct: also called peptide 13 C-term
T2 peptide: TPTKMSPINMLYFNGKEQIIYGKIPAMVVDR
Text: as §1

[3] = target: T3, hGDF8 peptide 5 (48-69), unmodified (human); assay: Luminex peptide beads
T3 peptide: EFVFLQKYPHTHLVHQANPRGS
Text: as §1

[4] = target: T4, hGDF8 peptide 13 (75-105), N-terminal biotinylated (human, N-terminal biotin); assay: Luminex peptide beads
T4 construct: also called peptide 13 N-term
T4 peptide: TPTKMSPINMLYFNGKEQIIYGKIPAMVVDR
Text: as §1

[5] = target: T5, hGDF8 peptide 3 (17-42), N-terminal biotinylated (human, N-terminal biotin); assay: Luminex peptide beads
T5 construct: also called peptide 3 N-term
T5 peptide: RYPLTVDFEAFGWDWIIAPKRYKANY
Text: as §1

[6] = target: T6, hGDF8 peptide 3 (17-42), C-terminal biotinylated (human, C-terminal biotin); assay: Luminex peptide beads
T6 construct: also called peptide 3 C-term
T6 peptide: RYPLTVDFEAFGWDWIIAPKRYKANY
Text: as §1

[7] = target: T7, hGDF8 peptide 14 (91-105), unmodified (human); assay: Luminex peptide beads
T7 peptide: EQIIYGKIPAMVVDR
Text: as §1

[8] = target: T8, hGDF8 peptide 4 (48-65), unmodified (human); assay: Luminex peptide beads
T8 peptide: EFVFLQKYPHTHLVHQAN
Text: as §1

[9] = target: T9, hGDF8 peptide 7 (52-65), unmodified (human); assay: Luminex peptide beads
T9 peptide: LQKYPHTHLVHQAN
Text: as §1

[10] = target: T10, hGDF8 peptide 11 (65-72), N-terminal biotinylated (human); assay: Luminex peptide beads
T10 construct: also called peptide 11 N-term
T10 peptide: Biotin-NPRGSAGP
Text: as §1

[11] = target: T11, hGDF8 peptide 8 (52-72), C-terminal biotinylated (human, C-terminal biotin); assay: Luminex peptide beads
T11 construct: also called peptide 8 C-term
T11 peptide: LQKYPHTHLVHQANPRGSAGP
Text: as §1

[12] = target: T12, hGDF8 peptide 10 (56-72), C-terminal biotinylated (human); assay: Luminex peptide beads
T12 construct: also called peptide 10 C-term
T12 peptide: PHTHLVHQANPRGSAGP-biotin
Text: as §1

[13] = target: T13, hGDF8 peptide 11 (65-72), C-terminal biotinylated (human); assay: Luminex peptide beads
T13 construct: also called peptide 11 C-term
T13 peptide: NPRGSAGP-biotin
Text: as §1

[14] = target: T14, hGDF8 peptide 12 (73-90), N-terminal biotinylated (human, cysteine pairing not given here); assay: Luminex peptide beads
T14 construct: also called peptide 12 N-term
T14 peptide: Biotin-CCTPTKMSPINMLYFNGK
Text: as §1

[15] = target: T15, hGDF8 peptide 7 (52-65), C-terminal biotinylated (human); assay: Luminex peptide beads
T15 construct: also called peptide 7 C-term
T15 peptide: LQKYPHTHLVHQAN-biotin
Text: as §1

[16] = target: T16, hGDF8 peptide 1 (1-14), unmodified (human); assay: Luminex peptide beads
T16 peptide: DFGLDCDEHSTESR
Text: as §1

[17] = target: T17, hGDF8 peptide 3 (17-42), unmodified (human); assay: Luminex peptide beads
T17 peptide: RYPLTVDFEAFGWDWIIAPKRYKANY
Text: as §1

[18] = target: T18, hGDF8 peptide 1 (1-14), N-terminal biotinylated (human); assay: Luminex peptide beads
T18 construct: also called peptide 1 N-term
T18 peptide: Biotin-DFGLDCDEHSTESR
Text: as §1

[19] = target: T19, hGDF8 peptide 9 (56-65), C-terminal biotinylated (human); assay: Luminex peptide beads
T19 construct: also called peptide 9 C-term
T19 peptide: PHTHLVHQAN-biotin
Text: as §1

[20] = target: T20, hGDF8 peptide 13 (75-105), unmodified (human); assay: Luminex peptide beads
T20 peptide: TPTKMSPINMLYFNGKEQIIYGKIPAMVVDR
Text: as §1

[21] = target: T21, hGDF8 peptide 6 (48-72), N-terminal biotinylated (human, N-terminal biotin); assay: Luminex peptide beads
T21 construct: also called peptide 6 N-term
T21 peptide: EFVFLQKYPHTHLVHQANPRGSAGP
Text: as §1

[22] = target: T22, hGDF8 peptide 2 (1-18), C-terminal biotinylated (human, cysteine pairing not given here); assay: Luminex peptide beads
T22 construct: also called peptide 2 C-term
T22 peptide: DFGLDCDEHSTESRCCRY-biotin
Text: as §1

[23] = target: T23, hGDF8 peptide 5 (48-69), C-terminal biotinylated (human, C-terminal biotin); assay: Luminex peptide beads
T23 construct: also called peptide 5 C-term
T23 peptide: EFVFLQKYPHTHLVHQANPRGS
Text: as §1

[24] = target: T24, Human GDF8 homodimer (mature human Growth and Differentiation Factor-8) (human, UniProt O14793 267-375); assay: SPR Biacore T100, captured on anti-hFc, 37°C
T24 construct: also called hGDF8; myostatin
T24 sequence: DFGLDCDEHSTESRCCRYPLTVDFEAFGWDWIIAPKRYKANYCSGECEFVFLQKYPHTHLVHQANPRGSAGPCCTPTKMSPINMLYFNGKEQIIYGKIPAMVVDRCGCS
Procedure: Additional antigen binding experiments were conducted in which GDF8 and GDF11 were applied over a surface of selected anti-GDF8 antibodies and control antibodies at 25° C. and 37° C. Equilibrium dissociation constants (KD values) for antigen binding to selected antibodies were determined by surface kinetics using a real-time biosensor surface plasmon resonance assay (BIACORE™ T100). […] Various concentrations (2.5-0.625 nM, 2-fold dilutions) of hGDF8 homodimer or hGDF11 homodimer (or in some experiments, Activin A) were injected over the captured antibody surfaces, and antigen-antibody binding and dissociation were monitored in real time. Kinetic analysis was performed to calculate KD, dissociation rate constants (kd), association rate constants (ka) and half-life of antigen/antibody complex dissociation. (NB=no binding observed).

B1: H4H1657N2 (antibody, V domains shown)
VH: EVQVLESGGDLVQPGGSLRLSCAASGFTFSAYAMTWVRQAPGKGLEWVSAISGSGGSAYYADSVKGRFTISRDNSKNTVYLQMNSLRAEDTAVYYCAKDGAWKMSGLDVWGQGTTVIVSS
VL: DIQMTQSPASLSASVGDRVTITCRASQDISDYLAWYQQKPGKIPRLLIYTTSTLQSGVPSRFRGSGSGTDFTLTISSLQPEDVATYYCQKYDSAPLTFGGGTKVEIK
notes: captured by anti-hFc, so human Fc
[1]
  binding result: no binding (tested: 2.5 µg/ml)
[2]
  binding result: no binding (tested: 2.5 µg/ml)
[3]
  binding result: no binding (tested: 2.5 µg/ml)
[4]
  binding result: no binding (tested: 2.5 µg/ml)
[5]
  binding result: no binding (tested: 2.5 µg/ml)
[6]
  binding result: no binding (tested: 2.5 µg/ml)
[7]
  binding result: no binding (tested: 2.5 µg/ml)
[8]
  binding result: no binding (tested: 2.5 µg/ml)
[9]
  binding result: no binding (tested: 2.5 µg/ml)
[10]
  binding result: no binding (tested: 2.5 µg/ml)
[11]
  binding result: no binding (tested: 2.5 µg/ml)
[12]
  binding result: no binding (tested: 2.5 µg/ml)
[13]
  binding result: no binding (tested: 2.5 µg/ml)
[14]
  binding result: no binding (tested: 2.5 µg/ml)
[15]
  binding result: no binding (tested: 2.5 µg/ml)
[16]
  binding result: no binding (tested: 2.5 µg/ml)
[17]
  binding result: no binding (tested: 2.5 µg/ml)
[18]
  binding result: no binding (tested: 2.5 µg/ml)
[19]
  binding result: no binding (tested: 2.5 µg/ml)
[20]
  binding result: no binding (tested: 2.5 µg/ml)
[21]
  binding result: no binding (tested: 2.5 µg/ml)
[22]
  binding result: no binding (tested: 2.5 µg/ml)
[23]
  binding result: no binding (tested: 2.5 µg/ml)
[24]
  Kd: 0.0379 nM
  T1/2: 91 min
